These results are taken from US20260167706A1, “ANTI-ADRENOMEDULLIN (ADM) ANTIBODY OR ANTI-ADM ANTIBODY FRAGMENT OR ANTI-ADM NON-IG SCAFFOLD FOR USE IN THERAPY OR PREVENTION OF SHOCK” (ADRENOMED AG, priority 2022, published 2026).

Assay [1] deals with human recombinant adrenomedullin receptor (CRLR + RAMP3) (human).
For assay [2] the target is unchanged. This is another data set of the same source.

For the substance “human ADM 22-52 (from UniProt P35318) (peptide)”, the IC50 (read off the curve); cAMP, % inhibition, 0.67 nM mADM as agonist in assay [1] was determined as 2 µM. Further, the IC50 (read off the curve); cAMP, % inhibition, 5.63 nM hADM as agonist in assay [2] was found to be 0.2 µM.
